Key:
[1] = biological target: recombinant glycosylated HIV-1 IIIB gp120 (baculovirus) (HIV-1 IIIB) (UniProt P04578)
[2] = biological target: recombinant glycosylated HIV-1 IIIB gp120 (baculovirus) (HIV-1 IIIB) (UniProt P04578); assay: SPR

Substance	IC50 of neutralization of HIV-1 (derived from pNL4-3) in Jurkat cells [1] [nM]	Ka [2] [M⁻¹]	Kd [2] [nM]	koff [2] [s⁻¹]
His-tagged recombinant KAA-1 (Kappaphycus alvarezii agglutinin 1) (natural protein)	12.9	–	–	–
native KAA-2 lectin from Kappaphycus alvarezii (natural protein)	7.3	–	–	–
native KAA-1 lectin from Kappaphycus alvarezii (natural protein)	9.2	–	–	–
recombinant KAA-1 after removal of the His tag by thrombin (natural protein)	–	1.61e+09	0.622	0.000529

— PMC7088233
